Assay results published in patent publication US20150044226A1 (SBI BIOTECH, published 2015).
Residue numbers refer to the chain shown, from its start.

Columns and labels:
[1] = target: T1, human PLD4 (phospholipase D4) protein (UniProt Q96BZ4 1-506); assay: binding to human PLD4-CT125 stable cells; apparent Kd
T1 chain: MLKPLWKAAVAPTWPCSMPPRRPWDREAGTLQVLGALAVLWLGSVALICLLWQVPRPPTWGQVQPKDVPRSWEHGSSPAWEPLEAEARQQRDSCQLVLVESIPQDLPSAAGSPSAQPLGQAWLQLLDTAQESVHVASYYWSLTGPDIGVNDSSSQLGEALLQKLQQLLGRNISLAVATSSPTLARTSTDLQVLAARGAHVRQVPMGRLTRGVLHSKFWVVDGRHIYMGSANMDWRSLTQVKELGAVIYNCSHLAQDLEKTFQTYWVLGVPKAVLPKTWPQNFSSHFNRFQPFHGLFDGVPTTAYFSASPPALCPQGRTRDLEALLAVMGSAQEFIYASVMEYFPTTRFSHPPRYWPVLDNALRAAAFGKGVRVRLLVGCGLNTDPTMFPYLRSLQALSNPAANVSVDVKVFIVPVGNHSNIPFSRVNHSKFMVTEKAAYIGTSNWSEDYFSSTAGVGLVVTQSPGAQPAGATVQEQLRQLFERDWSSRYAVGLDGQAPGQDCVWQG

cynomolgus monkey PLD4 [2] = target: T2, cynomolgus monkey PLD4 (cynomolgus monkey, UniProt Q96BZ4 1-506 (human entry)); assay: FACS, hybridoma culture supernatant on cynomolgus monkey PLD4-CT125 cells; non-binding implied (10C3 is not among the seven)
T2 construct: also called cynomolgus monkey PLD4 protein; cyno PLD4
T2 chain: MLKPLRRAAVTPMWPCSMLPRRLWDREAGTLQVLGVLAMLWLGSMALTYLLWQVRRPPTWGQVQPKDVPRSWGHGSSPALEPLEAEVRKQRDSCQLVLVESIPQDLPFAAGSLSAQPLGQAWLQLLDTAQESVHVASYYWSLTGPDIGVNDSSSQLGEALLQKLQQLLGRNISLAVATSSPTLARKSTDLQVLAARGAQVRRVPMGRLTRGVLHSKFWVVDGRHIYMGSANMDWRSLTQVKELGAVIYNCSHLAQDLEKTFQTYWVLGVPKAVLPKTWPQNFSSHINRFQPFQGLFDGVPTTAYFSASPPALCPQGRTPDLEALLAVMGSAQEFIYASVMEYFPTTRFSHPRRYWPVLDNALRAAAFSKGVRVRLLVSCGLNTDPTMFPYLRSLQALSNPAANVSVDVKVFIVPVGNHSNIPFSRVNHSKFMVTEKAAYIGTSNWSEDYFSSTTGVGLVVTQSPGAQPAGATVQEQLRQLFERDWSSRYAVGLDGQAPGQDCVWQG

rhesus monkey PLD4 [3] = target: T3, rhesus monkey PLD4 (rhesus monkey, UniProt Q96BZ4 1-506 (human entry)); assay: FACS, hybridoma culture supernatant on rhesus monkey PLD4-293T transient transfectants; non-binding implied (10C3 is not among the seven)
T3 construct: also called rhesus monkey PLD4 protein
T3 chain: T2 chain with R56C, K66R, P78L

[4] = target: T4, human PLD4 (phospholipase D4) protein (human, UniProt Q96BZ4 1-506); assay: FACS titration (0.001 to 30 µg/mL) of purified antibody on human PLD4-CT125 cells, positive cell frequency fitted with GraphPad Prism (FIG. 19)
T4 construct: Type II transmembrane protein, 506 a.a; also called hPLD4; HuPLD4
T4 sequence: T1 chain
Method: For binding ability of the purified antibody, human PLD4-CT125 expression stable cell strain was reacted to nearly 100% of the positive staining rate at low concentration to high concentration (0.001 μg/mL to 30 μg/mL) of purified PLD4 antibody concentration. The frequency of staining positive cell and the antibody were data-analyzed using Graph Pad Prism version 5 software, and the dissociation constant molar concentration (Kd value) was computed in nM unit.

cynomolgus monkey PLD4 [5] = target: T2, cynomolgus monkey PLD4; assay: FACS, hybridoma culture supernatant on cynomolgus monkey PLD4-CT125 cells; non-binding implied (11D10 is not among the seven)
rhesus monkey PLD4 [6] = target: T3, rhesus monkey PLD4; assay: FACS, hybridoma culture supernatant on rhesus monkey PLD4-293T transient transfectants; non-binding implied (11D10 is not among the seven)
cynomolgus monkey PLD4 [7] = target: T2, cynomolgus monkey PLD4; assay: FACS, hybridoma culture supernatant on cynomolgus monkey PLD4-CT125 cells; non-binding implied (8C11 is not among the seven)
rhesus monkey PLD4 [8] = target: T3, rhesus monkey PLD4; assay: FACS, hybridoma culture supernatant on rhesus monkey PLD4-293T transient transfectants; non-binding implied (8C11 is not among the seven)
cynomolgus monkey PLD4 [9] = target: T2, cynomolgus monkey PLD4; assay: FACS on cynomolgus monkey PLD4-CT125 cells (FIG. 16)
rhesus monkey PLD4 [10] = target: T3, rhesus monkey PLD4; assay: FACS, hybridoma culture supernatant on rhesus monkey PLD4-293T transient transfectants (FIG. 17)

B1: anti-PLD4 mouse 10C3 antibody (antibody, mouse IgG2a, V domains shown)
VH: EVQLVESGGDLVRPGGSLKLSCAASGFSFSSYGMSWFRQTPDKRLEWVATISSGGSYIYYPESVKGRFTISRDNARNILYLQMSSLKSEDTAMYYCVRLYGGRRGYGLDYWGQGTSVTVSS
VL: EIVMTQAAFSNPVTLGTSASISCRSSKSLLHSDGITYLYWYLQKPGQSPQLLIYQMSNLASGVPDRFSSSGSGTDFTLRISRVEAEDVGVYYCAQNLELYTFGGGTKLEIKR
notes: Tested as hybridoma culture supernatant and as purified antibody
[1]
  Kd: 0.228 nM
Cynomolgus monkey PLD4 [2]
  binding result: no binding
Rhesus monkey PLD4 [3]
  binding result: no binding
[4]
  Kd: ≤ 1 nM

B2: anti-PLD4 mouse 11D10 antibody (antibody, mouse IgG2b, V domains shown)
VH: B1 VH
VL: B1 VL
notes: as for B1
[1]
  Kd: 0.192 nM
Cynomolgus monkey PLD4 [5]
  binding result: no binding
Rhesus monkey PLD4 [6]
  binding result: no binding
[4]
  Kd: ≤ 1 nM

B3: anti-PLD4 mouse 8C11 antibody (antibody, mouse IgG2b, V domains shown)
VH: QVQLQQSGAELVKPGASVKLSCKASGYTFTSYYLYWVRQRPGQGLEWIGLINPTNSDTIFNEKFKSKATLTVDKSSSTAYMQLSSLTSEDSAVYYCTREGGYGYGPFAYWGQGTLVTVSA
VL: DVVMTQTPLSLPVSLGDQASISCTSSQTLVHSNGNTYLHWYLQKPGQSPKLLIYKVSNRFSGVPDRFSGSGSGTDFTLKISRVEAEDLGVYFCSHSTHVPFTFGSGTKLEIKR
notes: as for B1
[1]
  Kd: 0.085 nM
Cynomolgus monkey PLD4 [7]
  binding result: no binding
Rhesus monkey PLD4 [8]
  binding result: no binding
[4]
  Kd: ≤ 1 nM

B4: anti-PLD4 mouse 3B4 antibody (antibody, V domains shown)
VH: EVQLQQSGTVLSRPGASVTMSCKASGDSFTTYWMHWVKQRPGQGLEWIGAIYPGNSETSYNQKFKGKAKLTAVTSASTAYMEFTSLTNEDSAVYYCTGGYSDFDYWGQGTTLTVSS
VL: DILMTQSPSSMSVSLGDTVSITCHASQGIRSNIGWLQQKPGKSFKGLIFHGTNLEDGVPSRFSGRGSGADYSLTINSLESEDFADYYCVQYVQFPPTFGSGTKLEIRR
notes: Tested as hybridoma culture supernatant and as protein A purified antibody
Cynomolgus monkey PLD4 [9]
  binding result: binds
[1]
  Kd: 2.12 nM
Rhesus monkey PLD4 [10]
  binding result: binds
[4]
  Kd: > 1 nM
